Test results from patent publication US20220177569A1 (Novartis, published 2022).
Each block holds one binder with its values, some of them ahead of it.

Assays:
[1] = molecular target: T1, Recombinant human IL-18 (human, UniProt Q14116 37-193); experiment: cell-based or functional assay
[2] = molecular target: T1, Recombinant human IL-18; experiment: cell-based or functional assay; remark: listed apart in the source
[3] = molecular target: T2, Recombinant marmoset IL-18 (marmoset, UniProt U3CWC9 37-190); experiment: cell-based or functional assay
T2 sequence: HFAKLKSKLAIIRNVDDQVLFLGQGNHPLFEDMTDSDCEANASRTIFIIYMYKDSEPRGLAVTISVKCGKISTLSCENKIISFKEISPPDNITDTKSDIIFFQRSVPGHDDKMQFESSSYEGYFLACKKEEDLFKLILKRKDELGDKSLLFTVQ

[4] = molecular target: T1, Recombinant human IL-18; experiment: SET (solution equilibrium titration, MSD ECL), individual target binding
Experimental: (§1) The plate was blocked with 50 μl/well blocking buffer (PBS containing 5% BSA) for 1 hour (h), at room temperature (RT). After washing (TBST, TBS containing 0.05% Tween 20), a volume of 30 μl/well of the equilibrated antigen- antibody mix was transferred from the polypropylene MTP to the coated MSD plate and incubated for 20 min at RT. After an additional wash step, 30 μl sulfo tag-labeled anti-IgG detection antibody (0.5 μg/ml) diluted in sample buffer were added to each well and incubated for 30 min at RT on a shaker. The MSD plate was washed and 35 μl/well MSD read buffer were added and incubated for 5 min at RT. Electrochemiluminescence (ECL) signals were generated and measured by the MSD Sector Imager 6000.

[5] = molecular target: T2, Recombinant marmoset IL-18; experiment: as above
Experimental: as §1

[6] = molecular target: T1, Recombinant human IL-18; experiment: SET, simultaneous target binding, Assay A (excess of the other target, IL-1β)
Experimental: as §1
(§2) Assay B: The equilibration process (antibody/antigen mix) was performed with both targets in serial dilutions in one mix simultaneously (constant concentration of antibody […], highest antigen conc. see above). The same mix was then analyzed for its free antibody concentration on IL18 and IL-1β coated plates as described above.

[7] = molecular target: T2, Recombinant marmoset IL-18; experiment: as above
Experimental: as §1, §2

[8] = molecular target: T1, Recombinant human IL-18; experiment: SET, simultaneous target binding, Assay B (both targets in serial dilutions in one mix)
Experimental: as §1, §2

[9] = molecular target: T2, Recombinant marmoset IL-18; experiment: as above
Experimental: as §1, §2

[10] = molecular target: T3, Recombinant human IL-1β (human, UniProt P01584 117-269); experiment: as above
T3 construct: also called huIL-1β; IL-1b
Experimental: as §1, §2

[11] = molecular target: T4, Recombinant marmoset IL-1β (marmoset, UniProt U3E018 117-268); experiment: as above
T4 construct: also called marIL-1β
Experimental: as §1, §2

[12] = molecular target: T3, Recombinant human IL-1β; experiment: cell-based or functional assay
[13] = molecular target: T3, Recombinant human IL-1β; experiment: cell-based or functional assay; remark: listed apart in the source
[14] = molecular target: T4, Recombinant marmoset IL-1β; experiment: cell-based or functional assay
[15] = molecular target: T3, Recombinant human IL-1β; experiment: SET (solution equilibrium titration, MSD ECL), individual target binding
Experimental: as §1

[16] = molecular target: T4, Recombinant marmoset IL-1β; experiment: as above
Experimental: as §1

[17] = molecular target: T3, Recombinant human IL-1β; experiment: SET, simultaneous target binding, Assay A (excess of the other target, IL-18)
Experimental: as §1, §2

[18] = molecular target: T4, Recombinant marmoset IL-1β; experiment: as above
Experimental: as §1, §2

- IFNγ prod. KG-1 cells IC50 (3 nM recombinant human IL-18 and 1 ng/ml human IL-12) [1]: 0.035 nM
- IFNγ prod. PBMC IC50 (3 nM recombinant human IL-18 and 1 ng/ml human IL-12) [1]: 0.78 nM
- Inhibition of SEAP in HEK reporter cells stimulated simultaneously with IL-1β and IL-18, IC50; mAb1 alone [2]: > 30 nM
- Inhibition of SEAP in HEK reporter cells stimulated simultaneously with IL-1β and IL-18, IC50; mAb2 and mAb1 combined [2]: 0.24 nM
- IFNγ prod. Human PBMC IC50 (marmoset IL-18 1 nM and human IL-12 10 ng/ml) [3]: 6.6 nM
- IFNγ prod. Marmoset blood IC50 (marmoset IL-18 0.3 nM and human IL-12 10 ng/ml) [3]: 4.7 nM
- IFNγ prod. Marmoset blood IC50 (marmoset IL-18 3 nM and human IL-12 10 ng/ml) [3]: 181 nM
- Kd [4]: 0.009 nM
- Kd [5]: 0.021 nM
- Kd [6]: 0.0135 nM
- Kd [7]: 0.0271 nM
- Kd [8]: 0.0114 nM
- Kd [9]: 0.0263 nM
B1: mAb1 (IL-18 antibody) (antibody, human IgG1, lambda, L234A L235A, V domains shown)
VH: EVQLVQSGAEVKKPGSSVKVSCKASGGTFKSYAISWVRQAPGQGLEWMGNIIPMTGQTYYAQKFQGRVTITADESTSTAYMELSSLRSEDTAVYYCARAAYHPLVFDNWGQGTLVTVSS
VL: DIVLTQPPSVSGAPGQRVTISCSGSSSNIGNHYVNWYQQLPGTAPKLLIYRNNHRPSGVPDRFSGSKSGTSASLAITGLQSEDEADYYCQSWDYSGFSTVFGGGTKLTVLG
- binding result [10]: no binding (tested: highest antigen conc. huIL-1β 0.5 nM)
- binding result [11]: no binding (tested: highest antigen conc. marIL-1β 0.5 nM)

- IL-6 prod. PBMC IC50 (human PBMC stimulated with 60 pM recombinant human IL-1β) [12]: 0.29 nM
- IL-6 prod. derm. fibrobl. IC50 (human dermal fibroblasts stimulated with 6 pM recombinant human IL-1β) [12]: 31 pM
- Inhibition of SEAP in HEK reporter cells stimulated simultaneously with IL-1β and IL-18, IC50; mAb2 alone [13]: 30 nM
- Inhibition of SEAP in HEK reporter cells stimulated simultaneously with IL-1β and IL-18, IC50; mAb2 and mAb1 combined [13]: 0.24 nM
- IL-6 prod. dermal fibroblasts IC50, Exp. B (18 pM recombinant marmoset IL-1β; marmoset cells by the reading of the header) [14]: 0.138 nM
- IL-6 prod. dermal fibroblasts IC50, Exp. C (18 pM recombinant marmoset IL-1β; human cells by the reading of the header) [14]: 0.114 nM
- IL-6 prod. marmoset dermal fibroblasts IC50, Exp. A (18 pM recombinant marmoset IL-1β) [14]: 95 pM
- Kd [15]: 0.0006 nM
- Kd [16]: 0.001 nM
- Kd [17]: 0.0011 nM
- Kd [18]: 0.0008 nM
- Kd [10]: 0.0032 nM
- Kd [11]: 0.0048 nM
B2: mAb2 (IL-1β antibody) (antibody, human IgG1, kappa, V domains shown)
VH: QVQLVESGGGVVQPGRSLRLSCAASGFTFSVYGMNWVRQAPGKGLEWVAIIWYDGDNQYYADSVKGRFTISRDNSKNTLYLQMNGLRAEDTAVYYCARDLRTGPFDYWGQGTLVTVSS
VL: EIVLTQSPDFQSVTPKEKVTITCRASQSIGSSLHWYQQKPDQSPKLLIKYASQSFSGVPSRFSGSGSGTDFTLTINSLEAEDAAAYYCHQSSSLPFTFGPGTKVDIKR
- binding result [8]: no binding (tested: highest antigen conc. huIL-18 5 nM)
